Measurements taken from paper PMC4967826, “Combined structural, biochemical and cellular evidence demonstrates that both FGDF motifs in alphavirus nsP3 are required for efficient replication” (Open Biology, 2016).

How the values were obtained:
[1] = molecular target: GFP-nsP3-36-F3AN (Semliki Forest virus); assay: MST
[2] = molecular target: GFP-nsP3-36 (GFP fused to the C-terminal 36 residues of SFV nsP3, C-terminal His tag) (Semliki Forest virus); assay: MST
[3] = molecular target: GFP-nsP3-36-F3ANC (Semliki Forest virus); assay: MST
[4] = molecular target: GFP-nsP3-36-F3AC (Semliki Forest virus); assay: MST
G3BP-1 F15A mutant = conditions: isothermal titration calorimetry; ref [28]; cited from earlier work
Source text: The importance of the hydrophobic FGDF-binding site of G3BP-1 has been validated in previous binding studies using mutated versions of G3BP in which Phe-33 and Phe-15 were substituted to tryptophan and alanine, respectively. Both Phe-33 and Phe-15 are localized centrally within the hydrophobic binding site that coordinates the phenylalanine residues of the FGDF motif (figure 2b,c).

[5] = molecular target: nsP3-F3AC of virus SFV-F3AC (Semliki Forest virus)

“NTF2-like domain of human G3BP-1 (residues 1-139) (from UniProt Q13283 1-139) (domain or fragment)” gave a Kd [1] of 5.8 µM, a binding constant of the high-affinity binding event [2] of 150 nM and a binding constant of the low-affinity binding event [2] of 4.1 µM. The Kd [3] was 17 µM, the binding constant of the high-affinity binding event [4] was 410 nM and the binding constant of the low-affinity binding event [4] was 23 µM.

For “DSGFSFGSK [nucleoporin (Nup)-derived peptide]”, the “binding affinity to F15A mutant of G3BP-1” value (G3BP-1 F15A mutant) is given as “five times lower binding affinity”.

“G3BP-1 (endogenous, BHK cells) (from UniProt A0A9J7JVX0 1-465) (natural protein)” showed a G3BP-1 in the IP relative to SFV WT (densitometry) [5] of 49.5%.
